Results on three molecules are retold here after publication PMC10901373, “An unusual dual sugar-binding lectin domain controls the substrate specificity of a mucin-type O-glycosyltransferase” (Science Advances, 2024).

No end group written: not given here. *: point of attachment. αGalNAc = CC(=O)N[C@@H]1[C@@H](O)[C@@H](O)[C@@H](CO)O[C@@H]1*

The target of test [1] is T1, human GalNAc-T1 D484A (β repeat variant) (human) (UniProt Q10472).
T1 sequence: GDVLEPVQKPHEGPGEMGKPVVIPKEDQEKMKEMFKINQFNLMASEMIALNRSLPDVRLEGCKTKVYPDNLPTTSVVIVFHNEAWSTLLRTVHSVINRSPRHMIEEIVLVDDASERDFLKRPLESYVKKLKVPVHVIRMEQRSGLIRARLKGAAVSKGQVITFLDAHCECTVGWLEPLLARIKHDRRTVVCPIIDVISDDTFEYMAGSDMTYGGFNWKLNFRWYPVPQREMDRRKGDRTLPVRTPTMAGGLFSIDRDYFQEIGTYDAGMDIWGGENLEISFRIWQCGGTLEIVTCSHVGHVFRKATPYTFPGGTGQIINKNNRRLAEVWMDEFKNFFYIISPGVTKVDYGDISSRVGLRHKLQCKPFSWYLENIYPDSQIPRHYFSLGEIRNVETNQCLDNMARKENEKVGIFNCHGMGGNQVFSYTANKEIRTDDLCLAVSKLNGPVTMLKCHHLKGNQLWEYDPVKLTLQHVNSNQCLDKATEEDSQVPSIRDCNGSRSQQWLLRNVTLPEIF

Test [2] addresses T2, human GalNAc-T1 D444A (α repeat variant) (human) (UniProt Q10472).
T2 sequence: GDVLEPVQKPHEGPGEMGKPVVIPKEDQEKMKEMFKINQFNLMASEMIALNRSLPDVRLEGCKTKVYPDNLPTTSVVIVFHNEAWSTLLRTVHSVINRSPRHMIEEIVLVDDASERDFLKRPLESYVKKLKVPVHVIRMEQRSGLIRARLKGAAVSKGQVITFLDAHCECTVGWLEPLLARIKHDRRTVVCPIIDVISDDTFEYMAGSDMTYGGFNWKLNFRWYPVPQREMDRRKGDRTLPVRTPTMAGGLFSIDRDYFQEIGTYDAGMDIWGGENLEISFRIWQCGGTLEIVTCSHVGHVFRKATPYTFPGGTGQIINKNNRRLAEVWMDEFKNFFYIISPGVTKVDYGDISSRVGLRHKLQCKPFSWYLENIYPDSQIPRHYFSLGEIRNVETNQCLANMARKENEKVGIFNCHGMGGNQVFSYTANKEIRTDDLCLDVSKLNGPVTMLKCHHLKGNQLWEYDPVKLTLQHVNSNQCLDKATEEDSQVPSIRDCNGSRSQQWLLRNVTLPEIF

In test [3] the target is T3, mouse GalNAc-T1 (pKN55-His6-TEV-mGalNAc-T1-∆56) (mouse, UniProt O08912 57-559).
T3 construct: mouse polypeptide N-acetylgalactosaminyltransferase 1 (GalNAc-T1), construct printed as mGalNAc-T1-∆56 (read as lacking the first 56 residues); 98% identical to human GalNAc-T1; The construct has a TEV site after the His6 tag; The start at residue 57 is read from the name ∆56; also called N-acetylgalactosaminyl-transferase 1; source: SD200 16/60 gel filtration before crystallization
T3 sequence (looked up): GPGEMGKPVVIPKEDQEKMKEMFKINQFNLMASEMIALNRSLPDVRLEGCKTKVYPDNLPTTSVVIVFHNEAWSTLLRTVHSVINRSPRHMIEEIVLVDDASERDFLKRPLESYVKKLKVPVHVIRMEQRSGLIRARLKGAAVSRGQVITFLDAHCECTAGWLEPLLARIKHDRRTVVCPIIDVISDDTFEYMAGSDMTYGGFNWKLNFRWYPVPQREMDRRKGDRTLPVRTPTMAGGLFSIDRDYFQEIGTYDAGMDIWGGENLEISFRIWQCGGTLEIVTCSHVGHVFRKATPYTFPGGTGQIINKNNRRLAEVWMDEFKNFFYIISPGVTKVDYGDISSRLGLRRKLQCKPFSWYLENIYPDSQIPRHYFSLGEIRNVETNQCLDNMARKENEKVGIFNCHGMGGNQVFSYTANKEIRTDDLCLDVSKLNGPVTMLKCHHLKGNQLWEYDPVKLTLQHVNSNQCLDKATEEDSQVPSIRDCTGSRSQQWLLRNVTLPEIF
Nature of the test: crystal structure; mouse GalNAc-T1 (5 mg/ml) combined with 4 mM Muc5AC-13, 5 mM UDP and 5 mM MnCl2; hanging drops, 20% PEG-3350, 0.1 M MES pH 6.5; 2.3 Å. Conditions: both partners purified.

Consider GATPAPVPAGAGT(αGalNAc)PAP [Muc5AC-A13 glycopeptide (GAT3…13^GalNAcPAP)], for which, in test [1], the KM (UDP-Glo), fold increase compared to GalNAc-T1^WT came to 20 fold and the kcat/KM (UDP-Glo), fold decrease compared to GalNAc-T1^WT amounted to 29 fold.
In the case of GAT(αGalNAc)PAPVPAGAGTPAP [Muc5AC-A3 glycopeptide (GAT3^GalNAc…13PAP)], in test [2], the KM (UDP-Glo), fold increase compared to GalNAc-T1^WT is 10 fold and the kcat/KM (UDP-Glo), fold reduction compared to GalNAc-T1^WT is 16 fold.

B1: Muc5AC-13 glycopeptide (GTT3PSPVPTTSTT13^GalNAcSAP) (peptide)
peptide: GTTPSPVPTTSTT(αGalNAc)SAP
notes: Muc5AC mucin repeat peptide, 16 residues; numbers count on: the peptide; source: synthetic peptide (Anaspec)
Turning to B1, in test [3], the binding result is listed as “binds”.
